Results taken from US20200255478A1 (ALMIRALL S A, published 2020).
Positions of bridges follow the written chain, without caps; N, C: chain ends. Non-standard residues stand in square brackets, D forms with d. Primed or numbered codes have the meaning given here. *: point of attachment. (pyridine)3,5‑diyldimethylene = -CH2-(pyridine-3,5-diyl)-CH2- bridge between the two Cys sulfurs; (3,3-oxetanediyl)dimethylene = -CH2-(oxetane-3,3-diyl)-CH2- bridge between the two Cys sulfurs; (1,2-phenylenediyl)dimethylene = -CH2-(1,2-phenylene)-CH2- bridge between the two Cys sulfurs; Pro(4S-NH2) = N[C@@H]1CN[C@H](C(=O)O)C1; Stearoyl = CCCCCCCCCCCCCCCCCC(=O)*; Palmitoyl = CCCCCCCCCCCCCCCC(=O)*; Nonadecanoyl′ = not defined here; Myristoyl = CCCCCCCCCCCCCC(=O)*; Thz = O=C(O)[C@@H]1CSCN1; Dodecyl = CCCCCCCCCCCC*; βAla = NCCC(=O)O

Target: T1, Keap1-Maltose Binding Protein (MBP tag) (UniProt Q14145 321-609, limits assumed)
T1 construct: also called Keap1-MBP; Keap-MBP
T1 sequence (Q14145 321-609 limits assumed): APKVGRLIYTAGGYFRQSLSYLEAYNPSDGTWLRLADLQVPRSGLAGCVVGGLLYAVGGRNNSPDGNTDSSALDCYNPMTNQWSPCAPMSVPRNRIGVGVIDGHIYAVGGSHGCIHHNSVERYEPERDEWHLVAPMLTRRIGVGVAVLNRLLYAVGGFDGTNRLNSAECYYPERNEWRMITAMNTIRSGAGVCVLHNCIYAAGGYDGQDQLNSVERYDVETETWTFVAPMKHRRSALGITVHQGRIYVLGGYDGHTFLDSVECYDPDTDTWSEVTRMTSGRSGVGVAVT
Assay: TR-FRET competition vs ETGE-biotin; grade band per paragraph 615

Row | IC50 [nM] | Binder
1 | < 1 | cyclo([Pro(4S-NH2)](Stearoyl)QCDPETGECL[dP]) (linker 3-10 via (1,2-phenylenediyl)dimethylene)
2 | < 1 | cyclo(K(Stearoyl)QCDPETGECL[dP]) (linker 3-10 via (1,2-phenylenediyl)dimethylene)
3 | < 1 | Stearoyl-KQCDPETGECL[dP] (lactam 1-C; linker 3-10 via (1,2-phenylenediyl)dimethylene)
4 | < 1 | cyclo([Pro(4S-NH2)](Stearoyl)QCDRETGECL[dP]) (linker 3-10 via (1,2-phenylenediyl)dimethylene)
5 | < 1 | cyclo([Pro(4S-NH2)](Stearoyl)QCDPETGECL[dP]) (linker 3-10 via (1,3-phenylenediyl)dimethylene)
6 | < 1 | cyclo([Pro(4S-NH2)](α‑linolenyl)QCDPETGECL[dP]) (linker 3-10 via (1,2-phenylenediyl)dimethylene)
7 | < 1 | cyclo([Pro(4S-NH2)](Stearoyl)QCD[Thz]ETGECL[dP]) (linker 3-10 via (1,3-phenylenediyl)dimethylene)
8 | < 1 | cyclo([Pro(4S-NH2)](Arachidyl)QCD[Thz]ETGECL[dP]) (linker 3-10 via (1,2-phenylenediyl)dimethylene)
9 | < 1 | Stearoyl-[βAla]LLCDPETGECLL-NH2 (linker 4-11 via (3,3-oxetanediyl)dimethylene)
10 | < 1 | Stearoyl-[βAla]KQCDPETGECLP-NH2 (linker 4-11 via (1,2-phenylenediyl)dimethylene)
11 | < 1 | Stearoyl-[βAla]KKCDPETGECLP-NH2 (linker 4-11 via (1,2-phenylenediyl)dimethylene)
12 | < 1 | cyclo([Pro(4S-NH2)](Arachidyl)QCD[Thz]ETGECL[dP]) (linker 3-10 via (3,3-oxetanediyl)dimethylene)
13 | < 1 | cyclo([Pro(4S-NH2)](Ac)QCDPETGECL[dP]) (linker 3-10 via (1,2-phenylenediyl)dimethylene)
14 | < 1 | cyclo([Pro(4S-NH2)](behenyl)QCDPETGECL[dP]) (linker 3-10 via (1,2-phenylenediyl)dimethylene)
15 | < 1 | cyclo([Pro(4S-NH2)](Dodecyl)QCDPETGECL[dP]) (linker 3-10 via (1,2-phenylenediyl)dimethylene)
16 | < 1 | cyclo([Pro(4S-NH2)](Palmitoyl)QCDPETGECL[dP]) (linker 3-10 via (1,2-phenylenediyl)dimethylene)
17 | < 1 | cyclo([Pro(4S-NH2)](Stearoyl)QCD[Thz]ETGECL[dP]) (linker 3-10 via (3,3-oxetanediyl)dimethylene)
18 | < 1 | cyclo([Pro(4S-NH2)](Nonadecanoyl′)QCDPETGECL[dP]) (linker 3-10 via (1,2-phenylenediyl)dimethylene)
19 | < 1 | cyclo([Pro(4S-NH2)](arachidyl)QCDPETGECL[dP]) (linker 3-10 via (1,2-phenylenediyl)dimethylene)
20 | < 1 | cyclo(LQCDEETGECLP) (linker 3-10 via (1,3-phenylenediyl)dimethylene) [{[&1Leu-Gln-Cys(&2)-Asp-Glu-Glu-Thr-Gly-Glu-Cys(&3)-Leu-Pro&1][&2(1,3-phenylenediyl)dimethylene&3]}]
21 | < 1 | cyclo([Pro(4S-NH2)](Arachidyl)QCDPETGECL[dP]) (linker 3-10 via (3,3-oxetanediyl)dimethylene)
22 | < 1 | H-LQCDAETGECLP-OH (linker 3-10 via (1,3-phenylenediyl)dimethylene) [{[H-Leu-Gln-Cys(&1)-Asp-Ala-Glu-Thr-Gly-Glu-Cys(&2)-Leu-Pro-OH][&1(1,3-phenylenediyl)dimethylene&2]}]
23 | < 1 | cyclo([Pro(4S-NH2)](Stearoyl)QCD[Thz]ETGECL[dP]) (linker 3-10 via (1,2-phenylenediyl)dimethylene)
24 | < 1 | cyclo([Pro(4S-NH2)](Myristoyl)QCDPETGECL[dP]) (linker 3-10 via (1,2-phenylenediyl)dimethylene)
25 | < 1 | Stearoyl-[βAla]LQCDPETGECLP-NH2 (linker 4-11 via (pyridine)3,5‑diyldimethylene)
26 | < 1 | cyclo([Pro(4S-NH2)](oleyl)QCDPETGECL[dP]) (linker 3-10 via (1,2-phenylenediyl)dimethylene)
